± gives the uncertainty stated by the source.
Experiment: self-splicing fitness, log relative to wild type (ln ratio); higher = more splicing; Tetrahymena group I intron in knt gene, E. coli kanamycin selection, DiMSum; sequences stand for … in CUCUCU…GGAGGGAAAAGUUAUCAGGCAUGCACCUGGUAGCUAGUCUUUAAACCAAUAGAUUGCAUCGGUUUAAAAGGCAAGACCGUCAAAUUGCGGGAAAGGGGUCAACAGCCGUUCAGUACCAAGUCUCAGGGGAAACUUUGAGAUGGCCUUGCAAAGGGUAUGGUAAUAAGCUGACGGACAUGGUCCUAACCACGCAGCCAAGUCCUAAGUCAACAGAUCUUCUGUUGAUAUGGAUGCAGUUCACAGACUAAAUGUCGGUCGGGGAAGAUGUAUUCUUCUCAUAAGAUAUAGUCGGACCUCUCCUUAAUGGGAGCUAGCGGAUGAAGUGAUGCAACACUGGAGCCGCUGGGAACUAAUUUGUAUGCGAAAGUAUAUUGAUUAGUUUUGGAGUACUCGUGGUCG
Summary of the method: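 Six replicate transformations of E. coli BL21(DE3) with a pET-22b(+) library were grown overnight at 37°C or 30°C. The library randomised all eight P1ex-region intron nucleotides, the intron lying in the knt kanamycin-resistance gene, and plates were LB agar with or without 25 μg/mL kanamycin plus 100 μg/mL carbenicillin, 50 μM IPTG and 0.2% rhamnose. Pooled colonies were amplicon-sequenced on an Illumina HiSeq 2500, and fitness is the DiMSum error-weighted combination of wild-type-normalised replicate fold changes, kanamycin versus none.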

| Sequence | self-splicing fitness (ln) (30 °C) | self-splicing fitness (ln) (37 °C) |
| --- | --- | --- |
| UCGUAGCAAUAUUACGGAAA | -3.38 ± 0.35 | -2.72 ± 0.31 |
| UCGUAGCAAUAUUACGGAUC | -3.32 ± 0.45 | -2.85 ± 0.48 |
| UCGUAGCAAUAUUACGGCAA | -2.52 ± 0.36 | -0.888 ± 0.27 |
| UCGUAGCAAUAUUACGGCGG | -2.41 ± 0.14 | -0.883 ± 0.15 |
| UCGUAGCAAUAUUACGGCGU | -3.46 ± 0.34 | -1.6 ± 0.22 |
| UCGUAGCAAUAUUACGGCUG | -3.29 ± 0.13 | -1.38 ± 0.14 |
| UCGUAGCAAUAUUACGGGCG | -2.12 ± 0.18 | -1.11 ± 0.17 |
| UCGUAGCAAUAUUACGUACA | -1.71 ± 0.24 | -1.73 ± 0.26 |
| UCGUAGCAAUAUUACGUACU | -2.04 ± 0.23 | -1.27 ± 0.17 |
| UCGUAGCAAUAUUACGUGCG | -2.44 ± 0.14 | -0.347 ± 0.14 |
| UCGUAGCAAUAUUACGUGGG | -3.54 ± 0.24 | -3.92 ± 0.28 |
| UCGUAGCAAUAUUACGUUAA | -1.59 ± 0.18 | -1.16 ± 0.17 |
| UCGUAGCAAUAUUACGUUCA | -1.39 ± 0.097 | -0.421 ± 0.11 |
| UCUAAGCAAUAUUACGACAC | -3.7 ± 0.18 | -2.82 ± 0.17 |
| UCUAAGCAAUAUUACGACUG | -0.955 ± 0.17 | -0.205 ± 0.23 |
| UCUAAGCAAUAUUACGAGUU | -2.94 ± 0.2 | -3.27 ± 0.28 |
| UCUAAGCAAUAUUACGAUAG | -1.15 ± 0.07 | -0.499 ± 0.1 |
| UCUAAGCAAUAUUACGAUAU | -3.99 ± 0.4 | -2.61 ± 0.34 |
| UCUAAGCAAUAUUACGAUCU | -3.07 ± 0.23 | -2.08 ± 0.2 |
| UCUAAGCAAUAUUACGAUGC | -3.03 ± 0.18 | -2.28 ± 0.21 |
| UCUAAGCAAUAUUACGCAUU | -2.92 ± 0.21 | -2.83 ± 0.28 |
| UCUAAGCAAUAUUACGCCUG | -1.6 ± 0.13 | -1.14 ± 0.2 |
| UCUAAGCAAUAUUACGCCUU | -3.44 ± 0.36 | -2.32 ± 0.27 |
| UCUAAGCAAUAUUACGCGUU | -4.04 ± 0.34 | -2.77 ± 0.38 |
| UCUAAGCAAUAUUACGGCUU | -4.01 ± 0.37 | -1.22 ± 0.26 |

| Sequence | self-splicing fitness (ln) (30 °C) | self-splicing fitness (ln) (37 °C) |
| --- | --- | --- |
| UCUAAGCAAUAUUACGGGCU | -4.19 ± 0.4 | -1.84 ± 0.3 |
| UCUAAGCAAUAUUACGGGGC | – | -2.21 ± 0.32 |
| UCUAAGCAAUAUUACGGUAA | -3.48 ± 0.36 | -1.33 ± 0.19 |
| UCUAAGCAAUAUUACGUGUA | -1.6 ± 0.12 | -0.704 ± 0.1 |
| UCUAAGCAAUAUUACGUGUU | -3.44 ± 0.14 | -2.81 ± 0.13 |
| UCUAAGCAAUAUUACGUUCU | -3.14 ± 0.22 | -1.47 ± 0.14 |
| UCUAAGCAAUAUUACGUUUA | – | -1.69 ± 0.37 |
| UCUCAGCAAUAUUACGAAUG | -1.73 ± 0.15 | -1.85 ± 0.26 |
| UCUCAGCAAUAUUACGACCG | – | -1.07 ± 0.47 |
| UCUCAGCAAUAUUACGAUCA | -0.104 ± 0.17 | -0.219 ± 0.17 |
| UCUCAGCAAUAUUACGAUGC | -3.28 ± 0.28 | -2.55 ± 0.27 |
| UCUCAGCAAUAUUACGCAGG | -4.14 ± 0.42 | -2.28 ± 0.25 |
| UCUCAGCAAUAUUACGGAUA | -1.12 ± 0.16 | 0.0308 ± 0.15 |
| UCUCAGCAAUAUUACGGAUC | -3.82 ± 0.32 | -1.52 ± 0.13 |
| UCUCAGCAAUAUUACGGCGG | -2.46 ± 0.16 | -1.01 ± 0.18 |
| UCUCAGCAAUAUUACGGCUG | -2.11 ± 0.13 | -2.21 ± 0.28 |
| UCUCAGCAAUAUUACGGGCG | -0.717 ± 0.08 | -0.262 ± 0.12 |
| UCUCAGCAAUAUUACGGGUA | -0.605 ± 0.11 | -0.0376 ± 0.11 |
| UCUCAGCAAUAUUACGGUAC | -3.18 ± 0.35 | -2.52 ± 0.34 |
| UCUCAGCAAUAUUACGGUGC | -3.17 ± 0.24 | -3.08 ± 0.23 |
| UCUCAGCAAUAUUACGUAAA | -1.82 ± 0.15 | -1.04 ± 0.2 |
| UCUCAGCAAUAUUACGUACA | -1.81 ± 0.21 | -0.374 ± 0.15 |
| UCUCAGCAAUAUUACGUGAC | -2.02 ± 0.39 | -1.82 ± 0.37 |
| UCUCAGCAAUAUUACGUGUU | -3.47 ± 0.14 | -2.73 ± 0.15 |
| UCUGAGCAAUAUUACGAACG | -2.04 ± 0.34 | -1.65 ± 0.38 |

| Sequence | self-splicing fitness (ln) (30 °C) | self-splicing fitness (ln) (37 °C) |
| --- | --- | --- |
| UCUGAGCAAUAUUACGAAGU | -2.62 ± 0.16 | -1.56 ± 0.19 |
| UCUGAGCAAUAUUACGACAU | -3.788 ± 0.034 | -2.73 ± 0.044 |
| UCUGAGCAAUAUUACGAGAG | -4.12 ± 0.26 | -2.69 ± 0.45 |
| UCUGAGCAAUAUUACGAUAC | – | -2.12 ± 0.25 |
| UCUGAGCAAUAUUACGCAAC | – | -2.24 ± 0.29 |
| UCUGAGCAAUAUUACGCACC | -3.59 ± 0.45 | – |
| UCUGAGCAAUAUUACGCAUG | -2.33 ± 0.18 | -1.65 ± 0.17 |
| UCUGAGCAAUAUUACGCUUG | -4.34 ± 0.46 | -2.31 ± 0.3 |
| UCUGAGCAAUAUUACGGAGU | -2.86 ± 0.19 | -2.57 ± 0.17 |
| UCUGAGCAAUAUUACGGAUG | -4.11 ± 0.31 | -2.14 ± 0.23 |
| UCUGAGCAAUAUUACGGCUG | -3.48 ± 0.2 | -2.22 ± 0.21 |
| UCUGAGCAAUAUUACGGGCC | -2.67 ± 0.35 | – |
| UCUGAGCAAUAUUACGGGUU | -2.32 ± 0.17 | -2.5 ± 0.24 |
| UCUGAGCAAUAUUACGUAGU | -2.3 ± 0.11 | -0.756 ± 0.13 |
| UCUGAGCAAUAUUACGUCAC | – | -2.32 ± 0.45 |
| UCUGAGCAAUAUUACGUCCU | -1.81 ± 0.39 | – |
| UCUGAGCAAUAUUACGUCGG | -0.746 ± 0.093 | -0.184 ± 0.12 |
| UCUGAGCAAUAUUACGUGAA | -2.32 ± 0.17 | -1.9 ± 0.27 |
| UCUGAGCAAUAUUACGUUUG | -4.82 ± 0.29 | -1.81 ± 0.15 |
| UCUUAGCAAUAUUACGACAG | -2.9 ± 0.24 | -1.56 ± 0.22 |
| UCUUAGCAAUAUUACGACGG | -0.955 ± 0.15 | -0.0318 ± 0.2 |
| UCUUAGCAAUAUUACGACGU | -0.316 ± 0.1 | -0.505 ± 0.13 |
| UCUUAGCAAUAUUACGAGGC | -3.01 ± 0.46 | – |
| UCUUAGCAAUAUUACGCAAG | -1.34 ± 0.2 | -2.48 ± 0.28 |
| UCUUAGCAAUAUUACGCGAA | – | -1.19 ± 0.3 |

| Sequence | self-splicing fitness (ln) (30 °C) | self-splicing fitness (ln) (37 °C) |
| --- | --- | --- |
| UCUUAGCAAUAUUACGCUAG | -2.15 ± 0.19 | -2.47 ± 0.28 |
| UCUUAGCAAUAUUACGGACC | – | -1.91 ± 0.28 |
| UCUUAGCAAUAUUACGGAGC | -3.74 ± 0.4 | -0.68 ± 0.14 |
| UCUUAGCAAUAUUACGGAUG | -3.74 ± 0.28 | -1.76 ± 0.17 |
| UCUUAGCAAUAUUACGGCGA | -0.253 ± 0.15 | -0.295 ± 0.13 |
| UCUUAGCAAUAUUACGGGAC | -3.78 ± 0.24 | -1.8 ± 0.32 |
| UCUUAGCAAUAUUACGGGCC | -3.6 ± 0.32 | -1.41 ± 0.27 |
| UCUUAGCAAUAUUACGGGGC | -3.82 ± 0.3 | -3.03 ± 0.27 |
| UCUUAGCAAUAUUACGUAAU | -5 ± 0.45 | -2.58 ± 0.2 |
| UCUUAGCAAUAUUACGUACG | -1.58 ± 0.083 | -0.522 ± 0.088 |
| UCUUAGCAAUAUUACGUCGU | -2.2 ± 0.12 | -1.92 ± 0.12 |
| UGAAAGCAAUAUUACGAACU | -0.526 ± 0.088 | 0.612 ± 0.1 |
| UGAAAGCAAUAUUACGAAGG | -2.92 ± 0.21 | -1.48 ± 0.25 |
| UGAAAGCAAUAUUACGAAUC | -3.58 ± 0.21 | -2.53 ± 0.21 |
| UGAAAGCAAUAUUACGAUAU | -2.68 ± 0.18 | -1.21 ± 0.13 |
| UGAAAGCAAUAUUACGAUUC | -2.53 ± 0.18 | -2 ± 0.22 |
| UGAAAGCAAUAUUACGCACU | -0.504 ± 0.094 | 0.371 ± 0.11 |
| UGAAAGCAAUAUUACGCCGA | -1.61 ± 0.14 | -0.339 ± 0.14 |
| UGAAAGCAAUAUUACGCCUA | 0.122 ± 0.093 | 0.207 ± 0.098 |
| UGAAAGCAAUAUUACGCGCG | -0.237 ± 0.079 | -0.153 ± 0.1 |
| UGAAAGCAAUAUUACGCGCU | -0.84 ± 0.11 | 0.297 ± 0.14 |
| UGAAAGCAAUAUUACGCGGA | -1.66 ± 0.13 | -1.52 ± 0.13 |
| UGAAAGCAAUAUUACGCGGG | -2.8 ± 0.13 | -0.83 ± 0.11 |
| UGAAAGCAAUAUUACGCGGU | – | -1.78 ± 0.36 |
